The test has as its target Fluorescein-labeled murine N-WASP-VCA (a.a. 399-501) (murine) (UniProt Q91YD9). The experiment in a line: fluorescence polarisation.

Turning to “ACD-cross-linked actin oligomers (from UniProt P68135 1-377)”, the Kd (as a rule, the free concentration of one partner at which half of the binding sites on the other are occupied at equilibrium, for simple one-to-one binding) turned out to be 8 nM.

For the origin of these results see PMC5964048.
